For this test, the target named is IL6 (human, UniProt P05231). The test can be described thus: ELISA, apparent. A general note: An ELISA detects its analyte on a solid surface through an enzyme-linked reagent.
Sequence of IL6 (P05231 30-212): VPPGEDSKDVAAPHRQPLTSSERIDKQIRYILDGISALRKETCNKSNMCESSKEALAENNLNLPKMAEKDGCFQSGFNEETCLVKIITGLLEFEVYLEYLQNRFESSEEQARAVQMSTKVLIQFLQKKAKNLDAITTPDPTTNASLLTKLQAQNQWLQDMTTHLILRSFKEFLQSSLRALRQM

B1: SIL-2E7 (antibody, V domains shown)
VH: EVQLVESGGGLVQAGGSLRLSCAASGRTFSKNTMGWFRQAPGKEREFVAAISWSVGSTYYGDSVNGRFTISRDDAKNTVYLQMNSLKPEDTAIYYCAADSSHYMLHPELREYDYWGQGTQVTVSS
In the case of B1, the Kd worked out at 2 nM.

B2: SIL-2D8 (antibody, V domains shown)
VH: EVQLVESGGGLVQAGGSLRLSCTASGHNADTYAMGWFRQAPGKEREFVTGISWTGVGTYIADSVKGRFTISRDNAKNTVYLQMNSLKPEDTAVYRCAAGSDYSDSHYDKSYEYDYWGQGTQVTVSS
With B2, the Kd was 5 nM.

B3: SIL-2F5 (antibody, V domains shown)
VH: EVQLVESGGGLVQAGGSLRLSCAASGRAADTYAMGWFRQSPGSRREFVTGISWTGSGTYYADSVKGRFTISRDTAKNTVYLQMNSLKPEDTAVYYCAAGSDYSDSHYDKSYEYDYWGQGTQVTVSS
Consider B3, for which the Kd was 1 nM.

B4: SIL-2D1 (antibody, V domains shown)
VH: EVQLVESGGGSVQPGGSLRLSCAASGFTLADESSGWFRQAPGKEREGVSCISITDGITYYADSVKGRFTISRDNAKNTLYLQMNSLKPEDTAVYYCATGNPYCSGHAGTEYDDWGQGTQVTVSS
On to B4, for which the Kd stood at 80 nM.

B5: SIL-3B7 (antibody, V domains shown)
VH: EVQLVESGGGLVQAGGSLRLSCAASARTFSNYAMGWFRQAPGKEREFVAGISWSGGYTSYADSVKGRFTISRDNAKNTVALEMNSLKPEDTAVYYCAAEGVIDELPIKTMRYEYDYWGQGTQVTVSS
On to B5, for which the Kd is > 1000 nM.

B6: SIL-2E4 (antibody, V domains shown)
VH: EVQLVESGGGLVQPGGSLRLSCAASGSIFDDHAIGWFRQAPGKEREGVSSIMTSDDSTHYADSVKGRFTISRDKAKNTVYLQMNNLKPEDTAVYYCAATDVFGLQYSSFLKSYEYDYWGQGTQVTVSS
As to B6, the Kd is > 1000 nM.

B7: SIL-3B6 (antibody, V domains shown)
VH: EVQLVESGGGLVQPGGSLRLSCAASGSIFDDHAIGWFRQAPGKEREGVSSIMTSDDSTHYADSVKGRFTVSRDKAKNTVYLQMNDLKPEDTAVYYCAATDVFGLQYSSFLKSYEYDYWGQGTQVTVSS
B7: the Kd was determined as 20 nM.

B8: SIL-3E7 (antibody, V domains shown)
VH: EVQLVESGGGLVQAGGSLRLSCAASARTFSNYALGWFRQVPGKEREFVAGITWSGDNTYYADSVKDRFTISRDNAKNTVWLQMNSLRPEDTAVYICAAEAVLEDKVAVSTMRYEYDYWGQGTQVTVSS
Regarding B8, the Kd is > 1000 nM.

The values above are taken from patent publication US20260356933 (published 2026).
